# Measurements: US20140303084A1 (Biogen, published 2014)
# Bridge positions count the residues as written; N and C are the ends. Square brackets hold non-standard residues; d marks the D form. Primed or numbered codes have the meaning given here. Ends that are not written are not given here. NMeW = CN[C@@H](Cc1c[nH]c2ccccc12)C(=O)O; NMeY = CN[C@@H](Cc1ccc(O)cc1)C(=O)O; NMeR = CN[C@@H](CCCNC(=N)N)C(=O)O; NMeF = CN[C@@H](Cc1ccccc1)C(=O)O; NMeT = CN[C@H](C(=O)O)[C@@H](C)O; NMeL = CN[C@@H](CC(C)C)C(=O)O; NMeS = CN[C@@H](CO)C(=O)O; NMeA = CN[C@@H](C)C(=O)O; PEG4′ = PEG4 spacer; Sar = CNCC(=O)O
# B1: RRAPGKLTCLASYCWLFWT-Sar-IA (peptide)
# peptide: RRAPGKLTCLASYCWLFWT[Sar]IA
# modifications: not fully specified; printed as RRAPGKLTCLASYCWLFWT-Sar-IA; cysteine pairing not given here
# B2: RRAPGKLTC-MeLeu-ASYCWLFWTGIA (peptide)
# peptide: RRAPGKLTC[NMeL]ASYCWLFWTGIA
# modifications: not fully specified (bridges); printed as RRAPGKLTC-MeLeu-ASYCWLFWTGIA; cysteine pairing not given here
# B3: RRAPGKLTCLASYCWlFWTGIA (peptide)
# peptide: RRAPGKLTCLASYCW[dL]FWTGIA
# modifications: not fully specified (bridges); printed as RRAPGKLTCLASYCWlFWTGIA; cysteine pairing not given here
# B4: RRAPGK-MeLeu-TCLASYCWLFWTGIA (peptide)
# peptide: RRAPGK[NMeL]TCLASYCWLFWTGIA
# modifications: not fully specified (bridges); printed as RRAPGK-MeLeu-TCLASYCWLFWTGIA; cysteine pairing not given here
# B5: RRAPGKLtCLASYCWLFWTGIA (peptide)
# peptide: RRAPGKL[dT]CLASYCWLFWTGIA
# modifications: not fully specified (C-terminus, bridges); printed as RRAPGKLtCLASYCWLFWTGIA; cysteine pairing not given here
# B6: RRaPGKLTCLASYCWLFWTGIA (peptide)
# peptide: RR[dA]PGKLTCLASYCWLFWTGIA
# modifications: not fully specified (bridges); printed as RRaPGKLTCLASYCWLFWTGIA; cysteine pairing not given here
# B7: RR-MeAla-PGKLTCLASYCWLFWTGIA (peptide)
# peptide: RR[NMeA]PGKLTCLASYCWLFWTGIA
# modifications: disulfide 9-14 (inferred); not fully specified (C-terminus); printed as RR-MeAla-PGKLTCLASYCWLFWTGIA
# B8: RRAPGKLTCLASYCWL-MePhe-WTGIA (peptide)
# peptide: RRAPGKLTCLASYCWL[NMeF]WTGIA
# modifications: not fully specified (bridges); printed as RRAPGKLTCLASYCWL-MePhe-WTGIA; cysteine pairing not given here
# B9: RRAPGKLTCLASYCWLFWTGIa (peptide)
# peptide: RRAPGKLTCLASYCWLFWTGI[dA]
# modifications: not fully specified (C-terminus, bridges); printed as RRAPGKLTCLASYCWLFWTGIa; cysteine pairing not given here
# B10: RRAPGKLTCLASYCWLfWTGIA (peptide)
# peptide: RRAPGKLTCLASYCWL[dF]WTGIA
# modifications: not fully specified (C-terminus, bridges); printed as RRAPGKLTCLASYCWLfWTGIA; cysteine pairing not given here
# B11: RRAP-Sar-KLTCLASYCWLFWTGIA (peptide)
# peptide: RRAP[Sar]KLTCLASYCWLFWTGIA
# modifications: not fully specified; printed as RRAP-Sar-KLTCLASYCWLFWTGIA; cysteine pairing not given here
# B12: RRAPGKLTCLASYCW-MeLeu-FWTGIA (peptide)
# peptide: RRAPGKLTCLASYCW[NMeL]FWTGIA
# modifications: not fully specified (bridges); printed as RRAPGKLTCLASYCW-MeLeu-FWTGIA; cysteine pairing not given here
# B13: RRAPGKLTCLAsYCWLFWTGIA (peptide)
# peptide: RRAPGKLTCLA[dS]YCWLFWTGIA
# modifications: not fully specified (bridges); printed as RRAPGKLTCLAsYCWLFWTGIA; cysteine pairing not given here
# B14: RRAPGKLTCLASYCWLFWTG-MeIle-A (peptide)
# peptide: RRAPGKLTCLASYCWLFWTG[MeIle]A
# modifications: not fully specified (C-terminus, bridges); printed as RRAPGKLTCLASYCWLFWTG-MeIle-A; cysteine pairing not given here
# B15: RRAPGKLTCLASYcWLFWTGIA (peptide)
# peptide: RRAPGKLTCLASY[dC]WLFWTGIA
# modifications: not fully specified (C-terminus, bridges); printed as RRAPGKLTCLASYcWLFWTGIA; cysteine pairing not given here
# B16: RRAPGKLTClASYCWLFWTGIA (peptide)
# peptide: RRAPGKLTC[dL]ASYCWLFWTGIA
# modifications: not fully specified (C-terminus, bridges); printed as RRAPGKLTClASYCWLFWTGIA; cysteine pairing not given here
# B17: RRAPGKLTCLASYCWLFWTGI-MeAla (peptide)
# peptide: RRAPGKLTCLASYCWLFWTGI[NMeA]
# modifications: not fully specified (C-terminus, bridges); printed as RRAPGKLTCLASYCWLFWTGI-MeAla; cysteine pairing not given here
# B18: RRAPGKLTCLAS-MeTyr-CWLFWTGIA (peptide)
# peptide: RRAPGKLTCLAS[NMeY]CWLFWTGIA
# modifications: not fully specified (bridges); printed as RRAPGKLTCLAS-MeTyr-CWLFWTGIA; cysteine pairing not given here
# B19: PEG4-RRAPGKLTCLASYCWLFWTGIA (peptide)
# peptide: [PEG4′]RRAPGKLTCLASYCWLFWTGIA
# modifications: disulfide 10-15 (inferred); not fully specified (C-terminus); printed as PEG4-RRAPGKLTCLASYCWLFWTGIA
# B20: RRAPGKLTCLASyCWLFWTGIA (peptide)
# peptide: RRAPGKLTCLAS[dY]CWLFWTGIA
# modifications: not fully specified (bridges); printed as RRAPGKLTCLASyCWLFWTGIA; cysteine pairing not given here
# B21: RRAPGKLTCLASYCWLFWtGIA (peptide)
# peptide: RRAPGKLTCLASYCWLFW[dT]GIA
# modifications: not fully specified (C-terminus, bridges); printed as RRAPGKLTCLASYCWLFWtGIA; cysteine pairing not given here
# B22: RRAPGKLTCLA-MeSer-YCWLFWTGIA (peptide)
# peptide: RRAPGKLTCLA[NMeS]YCWLFWTGIA
# modifications: not fully specified (bridges); printed as RRAPGKLTCLA-MeSer-YCWLFWTGIA; cysteine pairing not given here
# B23: R-MeArg-APGKLTCLASYCWLFWTGIA (peptide)
# peptide: R[NMeR]APGKLTCLASYCWLFWTGIA
# modifications: disulfide 9-14 (inferred); not fully specified (C-terminus); printed as R-MeArg-APGKLTCLASYCWLFWTGIA
# Biological target: human Factor IXa (human, UniProt P00740 47-191; P00740 227-461)
# Assay: cell-based or functional assay
"EC50 [µM], FXa generation assay [µM]","EC50 [µM], FXa generation assay with hFIXa [µM]",Binder
< 0.5,–,B1
> 1,–,B2
> 1,–,B3
–,< 0.5,PRI[dR]TVGPGS[dR]SASGKLTCLASYCWLFWTGIA-NH2 (cysteine pairing not given here) [compound 23]
> 1,–,B4
< 0.5,–,RRAPG[dK]LTCLASYCWLFWTGIA (disulfide 9-14 (inferred)) [RRAPGkLTCLASYCWLFWTGIA]
> 1,–,B5
> 1,–,B6
< 0.5,–,B7
> 1,–,B8
> 1,–,RRAPGKL[NMeT]CLASYCWLFWTGIA (cysteine pairing not given here) [RRAPGKL-MeThr-CLASYCWLFWTGIA]
> 10,–,RRAPGKLTCLASYC[NMeW]LFWTGIA (cysteine pairing not given here) [RRAPGKLTCLASYC-MeTrp-LFWTGIA]
–,< 0.5,SKQGRPISPD[dR]RAAGKLTCLASYCWLFWTGIA-NH2 (cysteine pairing not given here) [compound 24]
> 1,–,B9
< 0.5,–,B10
< 0.5,–,B11
> 10,–,B12
< 0.5,–,B13
> 4,–,B14

"EC50 [µM], FXa generation assay [µM]","EC50 [µM], FXa generation assay with hFIXa [µM]",Binder
> 1,–,CRRAPGKLQCLASYCWLFWTGIAGGSGGC
–,< 0.5,PRIRTVGPGSRSASGKLTCLASYCWLFWTGIA-NH2 (cysteine pairing not given here) [compound 21]
< 0.5,–,RRA[dP]GKLTCLASYCWLFWTGIA (disulfide 9-14 (inferred)) [RRApGKLTCLASYCWLFWTGIA]
> 1,–,B15
> 1,–,B16
–,< 0.5,RRAPGKLTCLASYCWLFWTGIA-NH2 (cysteine pairing not given here) [compound 4]
> 1,–,B17
> 1,–,B18
> 1,–,CGGSGGRRAPGKLQCLASYCWLFWTGIAGGSGGC
> 1,–,CRRAPGKLQCLASYCWLFWTGIAC
< 0.5,–,B19
< 0.5,–,B20
> 1,–,RRAPGKLTCL[dA]SYCWLFWTGIA (not fully specified (bridges); cysteine pairing not given here) [RRAPGKLTCLaSYCWLFWTGIA]
< 0.5,–,B21
> 1,–,[NMeR]RAPGKLTCLASYCWLFWTGIA (cysteine pairing not given here) [MeArg-RAPGKLTCLASYCWLFWTGIA]
< 0.5,–,B22
> 1,–,CGGSGGRRAPGKLQCLASYCWLFWTGIAC
< 0.5,–,B23
